# T1: (DocS)3 (Acetivibrio thermocellus, UniProt A3DH67)
# T1 sequence (A3DH67 with tags, fused parts or gaps): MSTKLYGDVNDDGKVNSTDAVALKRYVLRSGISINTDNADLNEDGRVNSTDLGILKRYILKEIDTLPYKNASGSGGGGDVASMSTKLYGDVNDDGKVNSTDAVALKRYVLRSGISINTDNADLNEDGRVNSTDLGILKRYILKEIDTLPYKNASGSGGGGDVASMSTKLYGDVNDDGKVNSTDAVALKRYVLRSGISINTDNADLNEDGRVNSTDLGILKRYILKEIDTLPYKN
# Columns and labels:
# [1] = system: STIF-specific target gene mRNA; experiment: Translational regulation by constitutive bipartite STIF reconstitution (SEAP, NanoLuc) in HEK-293 cells; assay type: cell-based, human; settings: 48 h
# Source text: FIG. 8. Translational regulation by spontaneous assembly of bipartite STIFs. (A) Translational regulation through constitutive STIF reconstitution. […] Transfection of pcDNA3.1 (+) instead of NSP3-fusion proteins was used as a negative control. […] (B) Compatibility of STIF-mediated translational regulation with split-complementation approaches. […] For (−) conditions, pcDNA3.1 (+) was transfected instead of expression vectors.
# FIG. 9. Translational regulation through constitutive Coh2/DocS-mediated STIF reconstitution. (A) Site-specific translational activation by eIFBP overexpression. HEK-293 cells were (co-) transfected with an expression vector for SEAP-mRNA containing 24 tandem C/D-box-(left panel, pSL355) or MS2-box repeats in the 3′-UTR (right panel, pSL468), constitutive expression vectors for L7Ae (left) or MCP (right) fused to Coh2 (L7Ae-Coh2, pSL83; MCP-Coh2, pSL674) or EGFP (L7Ae-EGFP, pSL1078; MCP-EGFP, pSL435) and constitutive expression vectors for various chimeric Coh2-specific DocS-containing eIFBP fusions (PABP-DocS, pSL47; DocS-eIF4G, pSL87; DocS-eIF4E, pLZ312; DocS-NSP3, pSL66; DocS-VPg, pLZ311). Transfection of pcDNA3.1 (+) instead of DocS- or MCP-expressing vectors was used as a negative control. […] SEAP (left) and NanoLuc levels in culture supernatants (right) were quantified at 48 h post-transfection. […]
# nNS3 = settings: different amounts of overexpressed nNS3, 48 h
# GNCR: NS3a system = experiment: Grazoprevir-inducible SEAP translation in HEK-293 cells (fold-change, dose-dependence, kinetics vs transcriptional switch); settings: three tandem GNCR and NS3a repeats
# Source text: Optimization of an L7Ae-based grazoprevir-inducible gene switch. (A) Translational regulation by grazoprevir-dependent STIF association. […] (B) Translational regulation by different grazoprevir-dependent NSP3-fusion proteins. […] (C) Translational regulation by different grazoprevir-dependent L7Ae-fusion proteins.
# Optimized L7Ae- and MCP-based grazoprevir-inducible gene switch in mammalian cells. (A) Optimized grazoprevir-inducible regulation of SEAP translation. […] (B, C) Dose-dependent grazoprevir-inducible SEAP expression.
# Comparative analysis of gene switches based on STIF-based translation and state-of-the-art transcription-centered designs. (A) Kinetics of grazoprevir-inducible SEAP expression. […] (B) Endpoint performance of grazoprevir-induced translational and transcriptional gene switch switches.
# BCR-ABL = experiment: Co-immunoprecipitation: BCR-ABL-mediated association of STIF components; assay type: binding, human; settings: HEK-293 cells, 48 h
# Chain of BCR-ABL (as listed by the source): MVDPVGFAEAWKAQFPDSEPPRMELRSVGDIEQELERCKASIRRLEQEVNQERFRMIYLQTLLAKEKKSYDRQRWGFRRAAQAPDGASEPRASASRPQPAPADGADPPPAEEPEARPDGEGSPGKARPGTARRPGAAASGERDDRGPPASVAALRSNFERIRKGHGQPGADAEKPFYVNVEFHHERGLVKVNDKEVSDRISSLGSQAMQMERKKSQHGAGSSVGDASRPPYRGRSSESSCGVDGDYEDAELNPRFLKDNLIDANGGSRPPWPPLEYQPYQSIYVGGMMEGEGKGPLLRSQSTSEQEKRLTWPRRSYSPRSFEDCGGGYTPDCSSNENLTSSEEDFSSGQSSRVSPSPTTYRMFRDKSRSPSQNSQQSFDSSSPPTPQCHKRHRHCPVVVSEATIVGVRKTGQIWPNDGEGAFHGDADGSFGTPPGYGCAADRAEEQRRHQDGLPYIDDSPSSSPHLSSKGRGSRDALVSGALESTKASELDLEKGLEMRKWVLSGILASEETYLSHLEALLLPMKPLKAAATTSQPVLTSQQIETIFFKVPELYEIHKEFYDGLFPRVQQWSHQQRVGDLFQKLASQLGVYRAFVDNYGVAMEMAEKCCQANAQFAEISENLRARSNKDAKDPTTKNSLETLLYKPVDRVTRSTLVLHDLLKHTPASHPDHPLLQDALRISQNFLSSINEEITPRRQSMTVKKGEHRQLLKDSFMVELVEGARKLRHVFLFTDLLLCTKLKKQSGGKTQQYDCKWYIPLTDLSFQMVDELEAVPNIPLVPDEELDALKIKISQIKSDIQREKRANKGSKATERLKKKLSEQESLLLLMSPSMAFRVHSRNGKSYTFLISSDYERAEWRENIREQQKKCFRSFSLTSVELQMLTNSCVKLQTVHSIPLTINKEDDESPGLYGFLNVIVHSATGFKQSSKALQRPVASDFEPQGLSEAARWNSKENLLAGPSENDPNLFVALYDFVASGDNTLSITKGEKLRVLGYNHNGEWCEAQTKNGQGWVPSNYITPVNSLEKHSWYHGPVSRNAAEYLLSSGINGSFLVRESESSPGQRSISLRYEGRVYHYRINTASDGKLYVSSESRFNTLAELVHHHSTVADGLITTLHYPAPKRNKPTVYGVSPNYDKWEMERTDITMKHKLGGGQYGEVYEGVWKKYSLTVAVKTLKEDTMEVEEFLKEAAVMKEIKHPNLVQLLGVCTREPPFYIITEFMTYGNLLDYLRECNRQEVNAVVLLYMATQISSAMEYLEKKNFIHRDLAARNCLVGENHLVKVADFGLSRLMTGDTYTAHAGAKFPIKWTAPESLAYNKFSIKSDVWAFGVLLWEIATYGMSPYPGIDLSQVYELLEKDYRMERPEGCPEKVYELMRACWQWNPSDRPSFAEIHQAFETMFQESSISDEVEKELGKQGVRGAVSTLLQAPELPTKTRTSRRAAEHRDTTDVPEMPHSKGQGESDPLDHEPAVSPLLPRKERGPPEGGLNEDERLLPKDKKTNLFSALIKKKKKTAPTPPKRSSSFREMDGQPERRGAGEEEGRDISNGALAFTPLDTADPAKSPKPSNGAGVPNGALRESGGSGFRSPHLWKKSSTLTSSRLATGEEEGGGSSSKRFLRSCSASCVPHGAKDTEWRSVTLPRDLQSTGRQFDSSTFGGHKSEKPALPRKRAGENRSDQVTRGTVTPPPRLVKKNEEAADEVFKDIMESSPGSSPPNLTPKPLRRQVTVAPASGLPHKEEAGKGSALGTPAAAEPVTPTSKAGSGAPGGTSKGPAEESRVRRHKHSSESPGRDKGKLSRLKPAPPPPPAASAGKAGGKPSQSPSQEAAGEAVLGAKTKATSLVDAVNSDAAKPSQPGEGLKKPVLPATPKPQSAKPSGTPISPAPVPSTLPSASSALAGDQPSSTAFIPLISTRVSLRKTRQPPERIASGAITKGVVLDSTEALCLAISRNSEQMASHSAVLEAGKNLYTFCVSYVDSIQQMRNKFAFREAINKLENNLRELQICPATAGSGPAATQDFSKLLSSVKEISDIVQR
# endogenous RNA (GAPDH) = experiment: RIP-qPCR: endogenous RNA binding of PABP- and NSP3-fusion proteins; design: species or system human; settings: 3×FLAG-tagged L7Ae-NSP3 vs PABP-L7Ae, 48 h
# Source text: RNA immunoprecipitation (RIP)-qPCR.
# (DocS)3 = target: T1, (DocS)3; experiment: Coh2/DocS-based STIF protein sensor for cytosolic (DocS)3; settings: different amounts of pSL244, 48 h
molecule,measurement,setting,value
(DocS)3-NSP3: bipartite STIF regulator (protein) MSTKLYGDVNDDGKVNSTDAVALKRYVLRSGISINTDNADLNEDGRVNSTDLGILKRYILKEIDTLPYKNASGSGGGGDVASMSTKLYGDVNDDGKVNSTDAVALKRYVLRSGISINTDNADLNEDGRVNSTDLGILKRYILKEIDTLPYKNASGSGGGGDVASMSTKLYGDVNDDGKVNSTDAVALKRYVLRSGISINTDNADLNEDGRVNSTDLGILKRYILKEIDTLPYKNASGSGGGGDVASMLKMESTQQMASSIINTSFEAAVVAATSTLELMGIQYDYNEVYTRVKSKFDYVMDDSGVKNNLLGKAATIDQALNGKFGSAARNRNWMADTRTTARLDEDVNKLRMMLSSKGIDQKMRVLNACFNVKRVPGKSSSIIKCTRLMRDKIERGEVEVDDSFVEEKMEVDTIDWKSRYEQLEKRFESLKQRVNEKYTSWVQKAKKVNENMYSLQNVISQQQSQIADLQNYCNKLEVDLQNKISSLVSSVEWYLKSMELPDEIKTDIEQQLNSIDVINPINAIDDFESLIRNIILDYDRIFLMFKGLMRQCNYEYTYE,target gene translation by spontaneous STIF assembly (SEAP),[1],modular and effective translational regulation
(scFv162)3-NSP3: bipartite STIF regulator (protein) MAEVQVQQSGAELVRSGASVKLSCTASGFNIKDYYMHWVKQRPEQGLEWIGWIDPANGNTKYDPKFQGKATITADTSSNTAYLQLSSLTSEDTAVYYCARWDWYFDVWGAGTTVTVSSGGGGSGGGGSGGGGSVFASGSGGGGDVASMAEVQVQQSGAELVRSGASVKLSCTASGFNIKDYYMHWVKQRPEQGLEWIGWIDPANGNTKYDPKFQGKATITADTSSNTAYLQLSSLTSEDTAVYYCARWDWYFDVWGAGTTVTVSSGGGGSGGGGSGGGGSVFASGSGGGGDVASMAEVQVQQSGAELVRSGASVKLSCTASGFNIKDYYMHWVKQRPEQGLEWIGWIDPANGNTKYDPKFQGKATITADTSSNTAYLQLSSLTSEDTAVYYCARWDWYFDVWGAGTTVTVSSGGGGSGGGGSGGGGSVFASGSGGGGDVASMLKMESTQQMASSIINTSFEAAVVAATSTLELMGIQYDYNEVYTRVKSKFDYVMDDSGVKNNLLGKAATIDQALNGKFGSAARNRNWMADTRTTARLDEDVNKLRMMLSSKGIDQKMRVLNACFNVKRVPGKSSSIIKCTRLMRDKIERGEVEVDDSFVEEKMEVDTIDWKSRYEQLEKRFESLKQRVNEKYTSWVQKAKKVNENMYSLQNVISQQQSQIADLQNYCNKLEVDLQNKISSLVSSVEWYLKSMELPDEIKTDIEQQLNSIDVINPINAIDDFESLIRNIILDYDRIFLMFKGLMRQCNYEYTYE,activation of translation of L7Ae-specific target mRNA (SEAP),nNS3,in a strict nNS3-dependent manner
(GNCR)3-NSP3: trigger-inducible STIF regulator (protein) MDIEKLCKKAEEEAKEAQEKADELRQRHPDSQAAEDAEDLANLAVAAVLTACLLAQEHPNADIAKLCIKAASEAAEAASKAAELAQRHPDSQAARDAIKLASQAARAVILAIMLAAENPNADIAKLCIKAASEAAEAASKAAELAQRHPDSQAARDAIKLASQAAEAVERAIWLAAENPNADIAKKCIKAASEAAEEASKAAEEAQRHPDSQKARDEIKEASQKAEEVKERCKSASGSGGGGDVASDIEKLCKKAEEEAKEAQEKADELRQRHPDSQAAEDAEDLANLAVAAVLTACLLAQEHPNADIAKLCIKAASEAAEAASKAAELAQRHPDSQAARDAIKLASQAARAVILAIMLAAENPNADIAKLCIKAASEAAEAASKAAELAQRHPDSQAARDAIKLASQAAEAVERAIWLAAENPNADIAKKCIKAASEAAEEASKAAEEAQRHPDSQKARDEIKEASQKAEEVKERCKSASGSGGGGDVASDIEKLCKKAEEEAKEAQEKADELRQRHPDSQAAEDAEDLANLAVAAVLTACLLAQEHPNADIAKLCIKAASEAAEAASKAAELAQRHPDSQAARDAIKLASQAARAVILAIMLAAENPNADIAKLCIKAASEAAEAASKAAELAQRHPDSQAARDAIKLASQAAEAVERAIWLAAENPNADIAKKCIKAASEAAEEASKAAEEAQRHPDSQKARDEIKEASQKAEEVKERCKSASGSGGGGDVASMLKMESTQQMASSIINTSFEAAVVAATSTLELMGIQYDYNEVYTRVKSKFDYVMDDSGVKNNLLGKAATIDQALNGKFGSAARNRNWMADTRTTARLDEDVNKLRMMLSSKGIDQKMRVLNACFNVKRVPGKSSSIIKCTRLMRDKIERGEVEVDDSFVEEKMEVDTIDWKSRYEQLEKRFESLKQRVNEKYTSWVQKAKKVNENMYSLQNVISQQQSQIADLQNYCNKLEVDLQNKISSLVSSVEWYLKSMELPDEIKTDIEQQLNSIDVINPINAIDDFESLIRNIILDYDRIFLMFKGLMRQCNYEYTYE,"regulation performance (fold-change, dose-dependence, activation kinetics)",GNCR: NS3a system,best regulation performance
CCmut3-NSP3: bipartite STIF regulator (protein) MVDPVGFAEAWKAQFPDSEPPRMELRSVGDIEQELERAEARIRRNEQRVNQERFRMIYLETLLAKEKKSYDRASGSGGGGDVASMLKMESTQQMASSIINTSFEAAVVAATSTLELMGIQYDYNEVYTRVKSKFDYVMDDSGVKNNLLGKAATIDQALNGKFGSAARNRNWMADTRTTARLDEDVNKLRMMLSSKGIDQKMRVLNACFNVKRVPGKSSSIIKCTRLMRDKIERGEVEVDDSFVEEKMEVDTIDWKSRYEQLEKRFESLKQRVNEKYTSWVQKAKKVNENMYSLQNVISQQQSQIADLQNYCNKLEVDLQNKISSLVSSVEWYLKSMELPDEIKTDIEQQLNSIDVINPINAIDDFESLIRNIILDYDRIFLMFKGLMRQCNYEYTYE,assembly of STIF components upon BCR-ABL overexpression (co-IP),BCR-ABL,triggers assembly
NSP3: rotaviral non-structural protein 3 (protein) LKMESTQQMASSIINTSFEAAVVAATSTLELMGIQYDYNEVYTRVKSKFDYVMDDSGVKNNLLGKAATIDQALNGKFGSAARNRNWMADTRTTARLDEDVNKLRMMLSSKGIDQKMRVLNACFNVKRVPGKSSSIIKCTRLMRDKIERGEVEVDDSFVEEKMEVDTIDWKSRYEQLEKRFESLKQRVNEKYTSWVQKAKKVNENMYSLQNVISQQQSQIADLQNYCNKLEVDLQNKISSLVSSVEWYLKSMELPDEIKTDIEQQLNSIDVINPINAIDDFESLIRNIILDYDRIFLMFKGLMRQCNYEYTYE,non-specific binding to endogenous RNA (GAPDH RNA IP/input),endogenous RNA (GAPDH),much less non-specific binding to endogenous RNA than PABP
(Coh2)3-NSP3: bipartite STIF regulator (protein) MVVVEIGKVTGSVGTTVEIPVYFRGVPSKGIANCDFVFRYDPNVLEIIGIDPGDIIVDPNPTKSFDTAIYPDRKIIVFLFAEDSGTGAYAITKDGVFAKIRATVKSSAPGYITFDEVGGFADNDLVEQKVSFIDGGVNVASGSGGGGDVASVVVEIGKVTGSVGTTVEIPVYFRGVPSKGIANCDFVFRYDPNVLEIIGIDPGDIIVDPNPTKSFDTAIYPDRKIIVFLFAEDSGTGAYAITKDGVFAKIRATVKSSAPGYITFDEVGGFADNDLVEQKVSFIDGGVNVASGSGGGGDVASVVVEIGKVTGSVGTTVEIPVYFRGVPSKGIANCDFVFRYDPNVLEIIGIDPGDIIVDPNPTKSFDTAIYPDRKIIVFLFAEDSGTGAYAITKDGVFAKIRATVKSSAPGYITFDEVGGFADNDLVEQKVSFIDGGVNVASGSGGGGDVASMLKMESTQQMASSIINTSFEAAVVAATSTLELMGIQYDYNEVYTRVKSKFDYVMDDSGVKNNLLGKAATIDQALNGKFGSAARNRNWMADTRTTARLDEDVNKLRMMLSSKGIDQKMRVLNACFNVKRVPGKSSSIIKCTRLMRDKIERGEVEVDDSFVEEKMEVDTIDWKSRYEQLEKRFESLKQRVNEKYTSWVQKAKKVNENMYSLQNVISQQQSQIADLQNYCNKLEVDLQNKISSLVSSVEWYLKSMELPDEIKTDIEQQLNSIDVINPINAIDDFESLIRNIILDYDRIFLMFKGLMRQCNYEYTYE,detection of cytosolic (DocS)3 (SEAP),(DocS)3,in a dose-dependent manner

# From US20260209789A1, “TRIGGER-INDUCIBLE MRNA CIRCULARIZATION” (WESTLAKE UNIVERSITY, priority 2022, published 2026)
